{"source": "paper PMC4027165", "about": "“SAXS analysis of the tRNA-modifying enzyme complex MnmE/MnmG reveals a novel interaction mode and GTP-induced oligomerization” (Nucleic Acids Research, 2014)", "binders": {"B1": {"name": "MnmG from Aquifex aeolicus (enzyme, UniProt O66962 1-617, looked up)", "chain": "MAWVVDEFDVVVIGGGHAGIEAALAAARMGAKTAMFVLNADTIGQMSCNPAIGGIAKGIVVREIDALGGEMGKAIDQTGIQFKMLNTRKGKAVQSPRAQADKKRYREYMKKVCENQENLYIKQEEVVDIIVKNNQVVGVRTNLGVEYKTKAVVVTTGTFLNGVIYIGDKMIPGGRLGEPRSEGLSDFYRRFDFPLIRFKTGTPARLDKRTIDFSALEVAPGDDPPPKFSFWTEPVGSYWFPKGKEQVNCWITYTTPKTHEIIRKNLHRTALYGGLIKGIGPRYCPSIEDKIVKFPDKERHQIFLEPEGLDTIEIYPNGLSTSLPEEVQWEMYRSIPGLENVVLIRPAYAIEYDVVPPTELYPTLETKKIRGLFHAGNFNGTTGYEEAAGQGIVAGINAALRAFGKEPIYLRRDESYIGVMIDDLTTKGVTEPYRLFTSRSEYRLYIRQDNAILRLAKLGRELGLLSEEQYKLVKELEREIEKWKEFYKSERVSVAVGGDTRSYSVATLMTMNYTLDDVKEKFGYEVPQHPYVKEEVEIQLKYEPYIERERKLNEKLKKLEDTKIPPDIDYDKIPGLTKEAREKLKKFKPITVGQASRIDGITPAAITALLVYLGKLD", "notes": "tRNA uridine 5-carboxymethylaminomethyl modification enzyme MnmG, Aquifex aeolicus; open reading frame cloned in a pET28a vector; Mainly a monomer by SEC-MALS, with a minor dimer peak; SAXS was measured on the dimer peak; also called A. aeolicus MnmG; GidA"}, "B2": {"name": "MnmE from Escherichia coli, wild type (enzyme, UniProt P25522 1-454, looked up)", "chain": "MSDNDTIVAQATPPGRGGVGILRISGFKAREVAETVLGKLPKPRYADYLPFKDADGSVLDQGIALWFPGPNSFTGEDVLELQGHGGPVILDLLLKRILTIPGLRIARPGEFSERAFLNDKLDLAQAEAIADLIDASSEQAARSALNSLQGAFSARVNHLVEALTHLRIYVEAAIDFPDEEIDFLSDGKIEAQLNDVIADLDAVRAEARQGSLLREGMKVVIAGRPNAGKSSLLNALAGREAAIVTDIAGTTRDVLREHIHIDGMPLHIIDTAGLREASDEVERIGIERAWQEIEQADRVLFMVDGTTTDAVDPAEIWPEFIARLPAKLPITVVRNKADITGETLGMSEVNGHALIRLSARTGEGVDVLRNHLKQSMGFDTNMEGGFLARRRHLQALEQAAEHLQQGKAQLLGAWAGELLAEELRLAQQNLSEITGEFTSDDLLGRIFSSFCIGK", "notes": "tRNA modification GTPase MnmE (formerly TrmE), Escherichia coli; open reading frame cloned in a pET20 vector; Homodimer of about 50-kDa subunits; Used nucleotide-free, with GDP-AlFx or with GppNHp depending on the experiment; also called TrmE; MnmE wt"}, "B3": {"name": "MnmE (E282A) (enzyme, Escherichia coli, UniProt P25522 1-454, looked up)", "chain": "B2 chain with E282A", "notes": "MnmE, Escherichia coli, slowly GTP-hydrolysing point variant; Variant of m1; also called slow hydrolyzing mutant MnmE (E282A)"}, "B4": {"name": "MnmE (Y169A, D175A and F176A) with additional S153A (enzyme, Escherichia coli, UniProt P25522 1-454, looked up)", "chain": "B2 chain with S153A, Y169A, D175A, F176A", "notes": "MnmE, Escherichia coli, point variant made by QuikChange mutagenesis of the pET20 construct; Variant of m6 with Ser153 also changed to alanine"}}, "key": {"[1]": {"molecular_target": "the molecule itself", "assay": "SEC-MALS + other: SAXS; A. aeolicus MnmG alone; SEC-MALS shows mainly monomer and a minor dimer peak; SAXS with online HPLC gel filtration on the dimer peak"}, "[2]": {"molecular_target": "T1, MnmG from Escherichia coli, wild type (Escherichia coli, UniProt P0A6U3 1-629)", "T1 construct": "tRNA uridine 5-carboxymethylaminomethyl modification enzyme MnmG (formerly GidA), Escherichia coli; open reading frame cloned in a pET14b vector; Homodimer of 70-kDa subunits; also called GidA; MnmG wt", "T1 sequence (looked up)": "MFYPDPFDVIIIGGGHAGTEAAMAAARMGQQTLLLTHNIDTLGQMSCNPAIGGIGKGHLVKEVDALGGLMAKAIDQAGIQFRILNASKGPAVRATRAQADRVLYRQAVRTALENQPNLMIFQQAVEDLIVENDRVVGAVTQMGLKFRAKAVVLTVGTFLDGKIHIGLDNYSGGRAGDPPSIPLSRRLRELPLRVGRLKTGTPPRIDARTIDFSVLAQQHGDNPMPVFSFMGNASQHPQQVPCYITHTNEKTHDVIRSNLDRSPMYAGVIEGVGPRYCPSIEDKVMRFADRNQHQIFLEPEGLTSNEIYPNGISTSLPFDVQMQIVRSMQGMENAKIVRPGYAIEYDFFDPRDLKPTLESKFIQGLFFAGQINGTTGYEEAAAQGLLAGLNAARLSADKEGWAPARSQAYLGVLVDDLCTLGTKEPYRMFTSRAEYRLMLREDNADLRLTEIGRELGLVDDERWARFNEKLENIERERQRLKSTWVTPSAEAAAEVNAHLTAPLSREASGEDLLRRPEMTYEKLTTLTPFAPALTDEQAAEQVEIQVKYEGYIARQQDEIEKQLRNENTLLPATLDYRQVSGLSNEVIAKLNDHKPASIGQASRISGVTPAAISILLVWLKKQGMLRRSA", "assay": "SAXS + SEC-MALS; MnmE-GDP-AlFx mixed in 2-fold molar excess with MnmG; SAXS with online HPLC; molecular weight from SAXS and SEC-MALS", "settings": "both partners purified"}, "[3]": {"molecular_target": "T1, MnmG from Escherichia coli, wild type", "assay": "ITC; 278 K; 20 mM Hepes pH 7.5, 150 mM NaCl, 5 mM MgCl2, 2 mM BME, 1 mM FAD; 15 uM in the cell, 300 uM in the syringe; titrated in both directions; one site model; apparent", "settings": "both partners purified"}, "[4]": {"molecular_target": "the molecule itself", "assay": "SAXS + SEC-MALS; E. coli MnmE without nucleotides; SAXS in batch mode, 20 mM Hepes pH 7.5, 150 mM KCl, 5 mM MgCl2, 2 mM DTT; molecular weight from SAXS and SEC-MALS"}, "[5]": {"molecular_target": "T1, MnmG from Escherichia coli, wild type", "assay": "SAXS + SEC-MALS; E. coli MnmE and MnmG mixed equimolar without nucleotides, complex purified by gel filtration; SAXS with online HPLC; molecular weight from SAXS and SEC-MALS", "settings": "both partners purified"}, "[6]": {"molecular_target": "T1, MnmG from Escherichia coli, wild type", "assay": "SEC; analytical gel filtration of 66.7 uM MnmE(E282A)-MnmG complex mixed with 100 uM GTP, aliquots between 0 min and 24 h; 20 mM Hepes pH 7.5, 150 mM KCl, 5 mM MgCl2, 2 mM DTT", "settings": "both partners purified"}, "[7]": {"molecular_target": "T1, MnmG from Escherichia coli, wild type", "assay": "ITC; 278 K; 20 mM Hepes pH 7.5, 150 mM NaCl, 5 mM MgCl2, 2 mM BME, 1 mM FAD; variants: 700 uM MnmE in the syringe into 50 uM MnmG in the cell and vice versa; one site model; apparent", "settings": "both partners purified"}}, "note": "Where a chain is given by its changes, count along the chain named. Names and notes keep the numbering of the source. Values joined by “and” are separate entries in the source; they are usually repeats but may differ in a detail not shown here. Identical values can stand only once."}
{"binder": "B1", "values": [{"measurement": "stoichiometry N", "setting": "[1]", "value": 2}]}
{"binder": "B2", "values": [{"measurement": "stoichiometry N", "setting": "[2]", "value": 2}, {"measurement": "Kd", "setting": "[3]", "value": "3 µM and 7 µM"}, {"measurement": "stoichiometry N", "setting": "[3]", "value": 0.5}, {"measurement": "stoichiometry N", "setting": "[4]", "value": 2}, {"measurement": "stoichiometry N", "setting": "[5]", "value": 1}]}
{"binder": "B3", "values": [{"measurement": "binding result", "setting": "[6]", "value": "binds"}]}
{"binder": "B4", "values": [{"measurement": "fold decrease in apparent affinity against wild type", "setting": "[7]", "value": "≤ 10", "unit": "fold"}]}
